Data set [1] has as its target T1, ABCB6-∆TMD0 (Homo sapiens, UniProt Q9NP58, DEL318-324).
T1 sequence (Q9NP58 with tags, fused parts or gaps DEL318-324): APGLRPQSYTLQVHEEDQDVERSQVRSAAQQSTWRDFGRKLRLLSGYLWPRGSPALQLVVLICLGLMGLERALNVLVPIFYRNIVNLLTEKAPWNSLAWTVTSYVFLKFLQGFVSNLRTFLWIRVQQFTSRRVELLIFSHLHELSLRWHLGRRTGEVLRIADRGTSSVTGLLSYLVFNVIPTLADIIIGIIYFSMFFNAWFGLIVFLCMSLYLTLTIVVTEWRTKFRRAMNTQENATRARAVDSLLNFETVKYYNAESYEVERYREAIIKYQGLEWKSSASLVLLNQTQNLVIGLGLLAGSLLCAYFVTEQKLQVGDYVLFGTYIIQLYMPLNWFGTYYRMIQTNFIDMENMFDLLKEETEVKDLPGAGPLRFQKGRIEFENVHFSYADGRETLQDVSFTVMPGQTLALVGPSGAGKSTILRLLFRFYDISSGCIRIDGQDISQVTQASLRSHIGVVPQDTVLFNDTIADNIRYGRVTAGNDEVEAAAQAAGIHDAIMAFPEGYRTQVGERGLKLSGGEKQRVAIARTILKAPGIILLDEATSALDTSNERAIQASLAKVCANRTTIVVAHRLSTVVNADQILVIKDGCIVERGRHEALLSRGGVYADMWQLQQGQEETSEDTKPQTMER
As to the kind of experiment: microscale thermophoresis, initial fluorescence change. It is filed as binding.

The target of data set [2] is T2, ABCB6-∆TMD0 (Homo sapiens, UniProt Q9NP58).
T2 sequence (Q9NP58 206-842): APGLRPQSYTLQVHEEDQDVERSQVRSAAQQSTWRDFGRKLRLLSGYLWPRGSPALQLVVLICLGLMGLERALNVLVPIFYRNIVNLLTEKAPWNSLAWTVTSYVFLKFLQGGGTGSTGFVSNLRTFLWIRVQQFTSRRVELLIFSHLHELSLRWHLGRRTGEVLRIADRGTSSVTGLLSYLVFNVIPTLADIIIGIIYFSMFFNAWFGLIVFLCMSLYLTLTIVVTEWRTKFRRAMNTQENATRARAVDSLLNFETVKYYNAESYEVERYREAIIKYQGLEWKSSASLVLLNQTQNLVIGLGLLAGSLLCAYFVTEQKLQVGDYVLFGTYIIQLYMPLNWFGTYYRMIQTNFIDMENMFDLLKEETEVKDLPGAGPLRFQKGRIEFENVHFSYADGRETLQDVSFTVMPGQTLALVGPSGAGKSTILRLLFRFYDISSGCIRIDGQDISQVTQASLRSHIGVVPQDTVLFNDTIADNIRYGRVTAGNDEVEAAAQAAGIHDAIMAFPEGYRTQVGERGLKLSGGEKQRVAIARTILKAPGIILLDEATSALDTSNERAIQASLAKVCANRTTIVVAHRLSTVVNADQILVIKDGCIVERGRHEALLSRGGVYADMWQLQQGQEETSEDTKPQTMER
The description is as above. In kind it is binding.

For data set [3], the target named is T3, ABCB6-∆TMD0 (Homo sapiens, UniProt Q9NP58, R435A/R439A/R552A).
T3 sequence (Q9NP58 206-842 R435A/R439A/R552A): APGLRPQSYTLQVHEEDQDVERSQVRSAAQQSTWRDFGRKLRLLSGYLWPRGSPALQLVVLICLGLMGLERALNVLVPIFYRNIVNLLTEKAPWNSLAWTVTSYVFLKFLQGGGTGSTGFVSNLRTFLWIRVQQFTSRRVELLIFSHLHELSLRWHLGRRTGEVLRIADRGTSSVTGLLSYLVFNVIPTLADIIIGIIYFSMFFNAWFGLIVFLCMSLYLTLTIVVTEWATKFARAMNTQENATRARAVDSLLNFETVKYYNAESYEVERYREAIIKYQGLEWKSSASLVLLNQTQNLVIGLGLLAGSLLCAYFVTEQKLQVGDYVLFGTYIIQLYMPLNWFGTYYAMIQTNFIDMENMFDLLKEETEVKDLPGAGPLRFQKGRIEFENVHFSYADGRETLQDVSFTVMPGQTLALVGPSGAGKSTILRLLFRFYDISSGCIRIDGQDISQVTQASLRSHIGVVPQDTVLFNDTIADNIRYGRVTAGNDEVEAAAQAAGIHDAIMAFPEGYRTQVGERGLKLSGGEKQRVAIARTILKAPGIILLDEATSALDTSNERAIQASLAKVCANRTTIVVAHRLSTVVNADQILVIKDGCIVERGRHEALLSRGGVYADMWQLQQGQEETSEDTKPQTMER
The data set is described as above. In kind it is binding.

Data set [4] deals with the molecule itself. As to the kind of experiment: cryo-EM structure.
Substrate in data set [5]: CC1=C(CCC(=O)O)c2cc3nc(cc4[nH]c(cc5[nH]c(cc1n2)c(C)c5CCC(=O)O)c(CCC(=O)O)c4C)C(CCC(=O)O)=C3C
Description: purified protein. Conditions: Km from stimulation of ATP hydrolysis, 37°C, Cymal-6/CHS.

Substrate in data set [6]: C=CC1=C(C)C2=Cc3c(C=C)c(C)c4[n]3[Fe]([Cl])[n]3c(c(C)c(CCC(=O)O)c3=CC3=NC(=C4)C(C)=C3CCC(=O)O)=CC1=N2
Description: purified protein. To be noted: Km from stimulation of ATP hydrolysis, 37°C.

Consider three molecules from paper PMC9385563 (Molecules and Cells, 2022).

As for `CC1=C(CCC(=O)O)c2cc3nc(cc4[nH]c(cc5[nH]c(cc1n2)c(C)c5CCC(=O)O)c(CCC(=O)O)c4C)C(CCC(=O)O)=C3C` [CPIII], the results for the Kd in data set [1], in data set [2] and in data set [3] were 14.1 ± 0.9 µM, 8.2 ± 0.1 µM and 17.8 ± 3 µM, respectively.

B1: ABCB6-∆TMD0 (core region of human ABCB6, residues 206-842) (domain or fragment, UniProt Q9NP58 206-842, looked up)
chain: APGLRPQSYTLQVHEEDQDVERSQVRSAAQQSTWRDFGRKLRLLSGYLWPRGSPALQLVVLICLGLMGLERALNVLVPIFYRNIVNLLTEKAPWNSLAWTVTSYVFLKFLQGGGTGSTGFVSNLRTFLWIRVQQFTSRRVELLIFSHLHELSLRWHLGRRTGEVLRIADRGTSSVTGLLSYLVFNVIPTLADIIIGIIYFSMFFNAWFGLIVFLCMSLYLTLTIVVTEWRTKFRRAMNTQENATRARAVDSLLNFETVKYYNAESYEVERYREAIIKYQGLEWKSSASLVLLNQTQNLVIGLGLLAGSLLCAYFVTEQKLQVGDYVLFGTYIIQLYMPLNWFGTYYRMIQTNFIDMENMFDLLKEETEVKDLPGAGPLRFQKGRIEFENVHFSYADGRETLQDVSFTVMPGQTLALVGPSGAGKSTILRLLFRFYDISSGCIRIDGQDISQVTQASLRSHIGVVPQDTVLFNDTIADNIRYGRVTAGNDEVEAAAQAAGIHDAIMAFPEGYRTQVGERGLKLSGGEKQRVAIARTILKAPGIILLDEATSALDTSNERAIQASLAKVCANRTTIVVAHRLSTVVNADQILVIKDGCIVERGRHEALLSRGGVYADMWQLQQGQEETSEDTKPQTMER
Take B1: in data set [4], the stoichiometry N (commonly the number of molecules, sites or subunits per partner or assembly) was found to be 2. The Km (usually the concentration of substrate that gives half-maximal velocity) in data set [5] is 19 ± 3.7 µM; in data set [6] (with 1 mM GSH, Cymal-6/CHS), 3 ± 0.3 µM. For the same molecule, the kcat is 25 min^–1 in data set [5] and 36 min^–1 in data set [6] (with 1 mM GSH, Cymal-6/CHS).

B2: ABCB6-∆TMD0 (Homo sapiens; Y550A) (protein)
chain: APGLRPQSYTLQVHEEDQDVERSQVRSAAQQSTWRDFGRKLRLLSGYLWPRGSPALQLVVLICLGLMGLERALNVLVPIFYRNIVNLLTEKAPWNSLAWTVTSYVFLKFLQGGGTGSTGFVSNLRTFLWIRVQQFTSRRVELLIFSHLHELSLRWHLGRRTGEVLRIADRGTSSVTGLLSYLVFNVIPTLADIIIGIIYFSMFFNAWFGLIVFLCMSLYLTLTIVVTEWRTKFRRAMNTQENATRARAVDSLLNFETVKYYNAESYEVERYREAIIKYQGLEWKSSASLVLLNQTQNLVIGLGLLAGSLLCAYFVTEQKLQVGDYVLFGTYIIQLYMPLNWFGTAYRMIQTNFIDMENMFDLLKEETEVKDLPGAGPLRFQKGRIEFENVHFSYADGRETLQDVSFTVMPGQTLALVGPSGAGKSTILRLLFRFYDISSGCIRIDGQDISQVTQASLRSHIGVVPQDTVLFNDTIADNIRYGRVTAGNDEVEAAAQAAGIHDAIMAFPEGYRTQVGERGLKLSGGEKQRVAIARTILKAPGIILLDEATSALDTSNERAIQASLAKVCANRTTIVVAHRLSTVVNADQILVIKDGCIVERGRHEALLSRGGVYADMWQLQQGQEETSEDTKPQTMER
In the case of B2, the Km in data set [6] (with GSH) was 10 µM.
